Test system: MS2 coat protein
Experiment: apparent KD of MS2 coat protein; designed switch direction (-1 OFF switch, 1 ON switch): 1; higher = weaker reporter binding
Summary of the method: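 The apparent KD reported per design is the median over clusters of curve fits to normalised cluster fluorescence. The RNA switches were transcribed on Illumina chips by stalled E. coli RNA polymerase. SNAP-549-labelled MS2 coat protein was titrated from 0.7 or 1.5 nM, doubling up to 3 µM, in Tris-HCl pH 7.5 buffer containing KCl, MgCl2, BSA, DTT, tRNA and Tween-20, with no input, 200 uM small-molecule ligand, or an oligonucleotide input.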

[1] = input ligand: microRNA oligo, concentration not stated
[2] = Eterna round: R95, input ligand: FMN 200 uM
[3] = Eterna round: R95, input ligand: microRNA oligo, concentration not stated
[4] = Eterna round: R95, input ligand: none

Row | Sequence | apparent KD of MS2 coat protein (input ligand: FMN 200 uM) [nM] | apparent KD of MS2 coat protein [1] [nM] | apparent KD of MS2 coat protein (input ligand: none) [nM] | apparent KD of MS2 coat protein [2] [nM] | apparent KD of MS2 coat protein [3] [nM] | apparent KD of MS2 coat protein [4] [nM]
1 | AUUGCUAGCACAGGAUAUCAUGCGAAAAUUGCGUGAGAAGGGUGUACUCUGUCAUUGCCGGAGGACAUGAGGAUCACCCAUGUC [SameState NG1 #82] (Eterna round: R96, puzzle: Same State NG 1) | 218 | 33.6 | 37.5 |  |  | 
2 | GGAGCCGGCCUAGGAUAUUUCAUAAUAAUACAUGAGGAUCACCCAUGUAGGCCAGAAGGCCUUGGGAAGAAGGAGGUCGGCUCC [Loop Effect - U26,U29] (Eterna round: R96, puzzle: Same State NG 2) | 14.1 | 26 | 43.2 |  |  | 
3 | GGCUGUUAAUUAGGAUAUGGUCACAUGAGGAUCACCCAUGUAACGAUGAUACGAUGUGGUCAAGACUAGAAGGGAUCGCUAACA [SameState NG2 #71] (Eterna round: R96, puzzle: Same State NG 2) | 172 | 128 | 105 |  |  | 
4 | CCGCCGGGAACCCGGCGAAAACAUGAGGAUCACCCAUGUACACAGGAUAUCGUGACAUUAACAAACGAGAAGGGUGGCCGAGAC [Lelateen] (Eterna round: R96, puzzle: Same State NG 3) | 453 | 189 | 182 |  |  | 
5 | GACAGGCAAGCUUUUUUCUCGUAGUGUAGACAUGAGGAUCACCCAUGUGCUCGCCCUGGAUCUUUGGAUCGCAGAAA [Laaxeso] (puzzle: Sensor for hsa-mir-208a) |  |  |  | 17.7 | 14.4 | 16.7
6 | CCGGAUAAUGGAGGAUAUGGAGCCUUAUUGGCUCCAGAAGGCUAACAUGAGGAUCACCCAUGUAGUCCGGCGGUCAAUAGACCG [Eli NG1ss - 67] (Eterna round: R96, puzzle: Same State NG 1) | 10.9 | 11.5 | 21.6 |  |  | 
7 | GGAUGAUUGACAGGAUAUCAUUUGUAAAUUGGUUGAGAAGGGUCGAUUACUUACACGACCUGUUACAUGAGGAUCACCCAUGUU [SameState NG1 #3] (Eterna round: R96, puzzle: Same State NG 1) | 34.9 | 20.5 | 31 |  |  | 
8 | ACAUGAGACCUAGGAUAUAUUGUACCUACAUGUGACAUGAGGAUCACCCAUGUGGUAAGUAUGACAUAGAAGGAGGAGAUAUGU [Equivalance 93 - Jieux - Same State NG 2] (Eterna round: R96, puzzle: Same State NG 2) | 31.5 | 27.2 | 54.7 |  |  | 
9 | AUUAUUAAUGCAGGAUAUGAUUAACAUGAGGAUCACCCAUGUGGUGUUGUGAGUAAGGAGAGUGAUCAGAAGGGCAGUUUUUUU [JMF's solution 8] (Eterna round: R96, puzzle: Same State NG 2) | 614 | 227 | 262 |  |  | 
10 | GCCGUAUAAACAUGAGGAUCACCCAUGUGCGCGAGAGCGAAUGAGGAUAUCGAUGGGUUUCCCGUCGAGAAGGCGUGGGUCGGC [JL SSNG3 3.96] (Eterna round: R96, puzzle: Same State NG 3) | 37.7 | 76.4 | 96.3 |  |  | 
11 | GGUCCAGCCUGAGCUGGACAAAAGCAUGUACAUGAGGAUCACCCAUGUCAUGUACAAGCUUUUUGCUCGUCUAAAGA [Mat - hsa-mir-208a - 91] (puzzle: Sensor for hsa-mir-208a) |  |  |  | 517 | 17.7 | 705
12 | CGUAGGCCUCUCAACAUGAGGAUCACCCAUGUACGUGAAACGUAGGAUAUCACACAACUAAUGUGUGAGAAGGGCGCGCCGGAG [Eternabot solution 25] (Eterna round: R96, puzzle: Same State NG 3) |  | 91.4 |  |  |  | 
13 | AGUGGUGGUGCAGGAUAUGCCUCAAAAGCAUGGGUAGAAGGGCAAUACAAAGAAACUCUGACAUGAGGAUCACCCAUGUAGCAA [Eternabot solution 43] (Eterna round: R96, puzzle: Same State NG 1) | 449 | 241 | 395 |  |  | 
14 | GGCAGGUGCAGGCUUGCUUGCACCUGGAGACAUGAGGAUCACCCAUGUUUGGGACAAGCUUUGCUCCUCGUCUUUUC [JL ViennaUCT Isusreraar mod 7] (Eterna round: R96, puzzle: Sensor for hsa-mir-208a) | 622 | 111 | 775 |  |  | 
15 | ACUCUACAUGAGGAUCACCCAUGUUGAGCCCAUCAAGGAUAUGGGUCUUAAUCGCGGGUGCCAGAAGGUGAUGGUU [Xesove] (Eterna round: R96, puzzle: Same State 1) | 313 | 46.8 | 94.3 |  |  | 
